Data: publication PMC9606172, “Recombinant acetylxylan esterase of Halalkalibacterium halodurans NAH-Egypt: molecular and biochemical study” (AMB Express, 2022)

Substrate: CC(=O)Oc1ccc([N+](=O)[O-])cc1
Assay: purified protein
Type: biochemical, Halalkalibacterium halodurans
Conditions: 30 mM Tris-HCl pH 8.0 (general assay), temperature for the Km not given

B1: AXE-HAS10 (Halalkalibacterium halodurans C-125) (protein)
chain: MPLIDMPLTELKEYMGRNPKPDDFTEYWDRALQEMRKVNPNVELIPSDFQTTYAECFHLYFTGVRGARIHAKYVRPRHTSGTHPAVIHFHGYTMNAGEWTGLLHYAALGYSVLAMDVRGQGGLSEDTGGVKGNTHSGHIIRGLDDNADQLLFRHVFLDTAQLANIVMNLPEVDEERVAVTGWSQGGALAIACAALEPKIKKVAPVYPFLSDYQRVWEMDLAEKAYDELQTYFRRFDPQHRREAEIFTKLGYIDIQHLAPLVKGEVLLAVGLMDTVCPPSTQFAMYNKLTTTKSIELYPDFAHEDLPGHRDRIFQFLSDL
notes: full-length ORF, 319 residues, no signal peptide; pET-28a(+) His6 fusion, 33 extra residues N-terminal and 9 C-terminal; E. coli BL21 (DE3) Rosetta; EC 3.1.1.72, CE7
Km: 96 µM | kcat: 63.1 s⁻¹ | kcat/Km: 657000 M⁻¹ s⁻¹
